Test results from US20220089758A1.

Target: CD40 protein displayed on cell surface (UniProt P25942)
Assay: cell-based or functional assay

Sequence of CD40 protein displayed on cell surface (P25942 21-277 limits assumed): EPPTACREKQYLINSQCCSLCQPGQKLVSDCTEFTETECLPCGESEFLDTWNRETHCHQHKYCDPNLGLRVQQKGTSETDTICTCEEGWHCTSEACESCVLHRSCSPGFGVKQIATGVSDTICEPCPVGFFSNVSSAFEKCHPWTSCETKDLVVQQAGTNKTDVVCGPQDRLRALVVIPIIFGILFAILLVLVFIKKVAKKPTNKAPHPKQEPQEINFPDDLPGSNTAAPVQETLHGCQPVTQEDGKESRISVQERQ

EC50 in activating MoDC assessed by CD86 expression: 4.2 nM | EC50 in activating monocyte derived dendritic cell (MoDC) assessed by CD80 expression: 5 nM
Substance: CP-870893 (antibody)
